Numbering of substitutions follows the chain as printed.
B1: HDAC4^N-WT (N-terminal fragment of Drosophila HDAC4, Pro37 to Gln143) (domain or fragment, UniProt Q9VYF3 37-143, looked up)
chain: PHPAVDIDQQIMELKKSQELQKQRLINSFQEQSKQMELEHKLQLEHKYQFAVNSHGAFQELRNESMVTAAAAAVAQEQHRQQLHQQQQQHQQQQQQQQHQQQQQQQQ
notes: Drosophila HDAC4 (DmHDAC4), translation of nucleotides 461-4216 of NCBI NM_132640; residues Pro37-Gln143, the region that corresponds to Ala62-Gln153 of human HDAC4; codon optimised for E. coli; Cloned in pET-15B in frame with the N-terminal 6x His tag; Which UniProt isoform equals the translation of NM_132640 is not known to me; also called wild-type N-terminal HDAC4
B2: HDAC4^N-S69F (domain or fragment, Drosophila, UniProt Q9VYF3 37-143, looked up)
chain: B1 chain with S33F
notes: Drosophila HDAC4 (DmHDAC4), translation of nucleotides 461-4216 of NCBI NM_132640; residues Pro37-Gln143 with Ser69Phe; Made by mutagenesis of HDAC4^N-WT in pET-15B
B3: HDAC4^N-F65A (domain or fragment, Drosophila, UniProt Q9VYF3 37-143, looked up)
chain: B1 chain with F29A
notes: Drosophila HDAC4 (DmHDAC4), translation of nucleotides 461-4216 of NCBI NM_132640; residues Pro37-Gln143 with Phe65Ala; Made by mutagenesis of HDAC4^N-WT in pET-15B

Target: the molecule itself
Experiment: cross-linking; 0.5 mg/ml HDAC4^N in SEC buffer (30 mM HEPES pH 7.6, 150 mM NaCl) with 0.2 mM or 2.0 mM disuccinimidyl suberate (DSS), 30 min at room temperature, quenched with Tris; SDS-PAGE and colloidal Coomassie

Protein	binding result
B1	binds
B2	binds
B3	binds

Source: paper PMC12567083, “N-terminal oligomerization drives HDAC4 nuclear condensation and neurodevelopmental dysfunction in Drosophila” (Open Biology, 2025)
